The source of these data is IntAct's records for PubMed 35512704.

B1: Speckle-type POZ protein (Homo sapiens), O43791 (parent)
chain: MSRVPSPPPPAEMSSGPVAESWCYTQIKVVKFSYMWTINNFSFCREEMGEVIKSSTFSSGANDKLKWCLRVNPKGLDEESKDYLSLYLLLVSCPKSEVRAKFKFSILNAKGEETKAMESQRAYRFVQGKDWGFKKFIRRDFLLDEANGLLPDDKLTLFCEVSVVQDSVNISGQNTMNMVKVPECRLADELGGLWENSRFTDCCLCVAGQEFQAHKAILAARSPVFSAMFEHEMEESKKNRVEINDVEPEVFKEMMCFIYTGKAPNLDKMADDLLAAADKYALERLKVMCEDALCSNLSVENAAEILILADLHSADQLKTQAVDFINYHASDVLETSGWKSMVVSHPHLVAEAYRSLASAQCPFLGPPRKRLKQS

One assay covers variants of B1. The following applies: with dll3_human DLL3, Q9NYJ7.
Consider MSRVPSPPPPAEMSSGPVAESWCYTQIKVVKFSYMWTINNFSFCREEMGEVIKSSTFSSGANDKLKWCLRVNPKGLDEESKDYLSLCLLLVSCPKSEVRAKFKFSILNAKGEETKAMESQRAYRFVQGKDWGFKKFIRRDFLLDEANGLLPDDKLTLFCEVSVVQDSVNISGQNTMNMVKVPECRLADELGGLWENSRFTDCCLCVAGQEFQAHKAILAARSPVFSAMFEHEMEESKKNRVEINDVEPEVFKEMMCFIYTGKAPNLDKMADDLLAAADKYALERLKVMCEDALCSNLSVENAAEILILADLHSADQLKTQAVDFINYHASDVLETSGWKSMVVSHPHLVAEAYRSLASAQCPFLGPPRKRLKQS [Y87C], for which the “effect of a mutation on the interaction” value is on record as “with no effect”.

Variants of B1 are the subject of a further assay. The note with it: with duox2_human DUOX2, Q9NRD8.
Chain of duox2_human DUOX2, Q9NRD8 (Q9NRD8 whole entry): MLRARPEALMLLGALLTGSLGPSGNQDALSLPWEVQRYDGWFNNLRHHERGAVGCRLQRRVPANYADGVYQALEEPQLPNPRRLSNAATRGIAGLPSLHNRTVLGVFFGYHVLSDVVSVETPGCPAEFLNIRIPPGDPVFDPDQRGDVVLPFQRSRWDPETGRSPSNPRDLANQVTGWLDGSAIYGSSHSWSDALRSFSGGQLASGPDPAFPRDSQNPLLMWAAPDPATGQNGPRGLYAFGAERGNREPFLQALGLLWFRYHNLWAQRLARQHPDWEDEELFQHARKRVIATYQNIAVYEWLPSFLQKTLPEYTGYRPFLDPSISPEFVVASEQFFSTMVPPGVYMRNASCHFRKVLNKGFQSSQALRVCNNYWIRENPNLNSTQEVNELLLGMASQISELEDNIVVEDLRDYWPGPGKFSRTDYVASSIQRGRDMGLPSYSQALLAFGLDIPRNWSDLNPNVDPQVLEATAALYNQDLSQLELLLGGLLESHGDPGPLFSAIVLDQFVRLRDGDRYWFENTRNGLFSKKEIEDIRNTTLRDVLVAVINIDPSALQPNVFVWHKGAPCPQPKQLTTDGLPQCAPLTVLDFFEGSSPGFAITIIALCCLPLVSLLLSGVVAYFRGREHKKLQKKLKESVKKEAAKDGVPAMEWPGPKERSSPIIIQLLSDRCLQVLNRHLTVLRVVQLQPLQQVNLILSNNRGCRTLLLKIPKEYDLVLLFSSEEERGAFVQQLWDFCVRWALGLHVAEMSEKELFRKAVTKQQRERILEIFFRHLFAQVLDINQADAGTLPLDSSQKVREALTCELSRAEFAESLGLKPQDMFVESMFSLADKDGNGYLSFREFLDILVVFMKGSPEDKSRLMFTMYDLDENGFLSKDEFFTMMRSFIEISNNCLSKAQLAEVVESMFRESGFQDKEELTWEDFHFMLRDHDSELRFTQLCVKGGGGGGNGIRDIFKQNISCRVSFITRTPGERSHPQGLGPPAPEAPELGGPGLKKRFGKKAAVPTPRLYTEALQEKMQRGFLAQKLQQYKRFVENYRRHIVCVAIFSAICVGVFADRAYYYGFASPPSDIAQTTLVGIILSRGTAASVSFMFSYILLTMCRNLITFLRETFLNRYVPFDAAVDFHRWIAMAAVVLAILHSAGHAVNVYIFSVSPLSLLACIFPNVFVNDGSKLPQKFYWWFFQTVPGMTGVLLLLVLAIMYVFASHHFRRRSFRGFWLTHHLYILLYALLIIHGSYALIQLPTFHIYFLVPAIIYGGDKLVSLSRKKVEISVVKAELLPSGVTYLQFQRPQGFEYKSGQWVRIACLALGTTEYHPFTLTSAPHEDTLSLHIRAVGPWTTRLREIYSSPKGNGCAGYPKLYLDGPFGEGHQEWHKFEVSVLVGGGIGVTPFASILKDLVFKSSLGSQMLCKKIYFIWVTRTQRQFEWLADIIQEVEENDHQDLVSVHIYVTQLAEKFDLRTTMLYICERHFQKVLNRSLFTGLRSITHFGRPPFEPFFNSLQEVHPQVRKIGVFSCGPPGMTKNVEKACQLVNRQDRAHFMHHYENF
On to MSRVPSPPPPAEMSSGPVAESWCYTQIKVVKFSYMWTINNFSFCREEMGEVIKSSTFSSGANDKLKWCLRVNPKGLDEESKDYLSLCLLLVSCPKSEVRAKFKFSILNAKGEETKAMESQRAYRFVQGKDWGFKKFIRRDFLLDEANGLLPDDKLTLFCEVSVVQDSVNISGQNTMNMVKVPECRLADELGGLWENSRFTDCCLCVAGQEFQAHKAILAARSPVFSAMFEHEMEESKKNRVEINDVEPEVFKEMMCFIYTGKAPNLDKMADDLLAAADKYALERLKVMCEDALCSNLSVENAAEILILADLHSADQLKTQAVDFINYHASDVLETSGWKSMVVSHPHLVAEAYRSLASAQCPFLGPPRKRLKQS [Y87C], for which the “effect of a mutation on the interaction” value was “with no effect”.

The variants in the next assay derive from B1. The following applies: with e2f1_human E2F1, Q01094.
Chain of e2f1_human E2F1, Q01094 (Q01094 whole entry): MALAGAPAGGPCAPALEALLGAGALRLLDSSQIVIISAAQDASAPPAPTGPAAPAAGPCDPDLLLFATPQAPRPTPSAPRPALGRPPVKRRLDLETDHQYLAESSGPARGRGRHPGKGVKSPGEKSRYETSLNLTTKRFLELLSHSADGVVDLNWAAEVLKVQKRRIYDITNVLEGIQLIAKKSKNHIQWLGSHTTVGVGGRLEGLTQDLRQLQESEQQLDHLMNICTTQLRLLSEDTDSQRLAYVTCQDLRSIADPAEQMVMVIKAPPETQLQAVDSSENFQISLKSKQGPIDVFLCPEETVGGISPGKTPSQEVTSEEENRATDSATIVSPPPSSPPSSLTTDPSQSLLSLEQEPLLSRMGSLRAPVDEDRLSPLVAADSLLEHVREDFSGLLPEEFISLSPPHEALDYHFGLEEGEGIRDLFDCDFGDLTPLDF
As to MSRVPSPPPPAEMSSGPVAESWCYTQIKVVKFSYMWTINNFSFCREEMGEVIKSSTFSSGANDKLKWCLRVNPKGLDEESKDYLSLCLLLVSCPKSEVRAKFKFSILNAKGEETKAMESQRAYRFVQGKDWGFKKFIRRDFLLDEANGLLPDDKLTLFCEVSVVQDSVNISGQNTMNMVKVPECRLADELGGLWENSRFTDCCLCVAGQEFQAHKAILAARSPVFSAMFEHEMEESKKNRVEINDVEPEVFKEMMCFIYTGKAPNLDKMADDLLAAADKYALERLKVMCEDALCSNLSVENAAEILILADLHSADQLKTQAVDFINYHASDVLETSGWKSMVVSHPHLVAEAYRSLASAQCPFLGPPRKRLKQS [Y87C], the “effect of a mutation on the interaction” value is “with no effect”.

The next assay covers variants of B1. The following applies: with e2f2_human E2F2, Q14209.
MSRVPSPPPPAEMSSGPVAESWCYTQIKVVKFSYMWTINNFSFCREEMGEVIKSSTFSSGANDKLKWCLRVNPKGLDEESKDYLSLCLLLVSCPKSEVRAKFKFSILNAKGEETKAMESQRAYRFVQGKDWGFKKFIRRDFLLDEANGLLPDDKLTLFCEVSVVQDSVNISGQNTMNMVKVPECRLADELGGLWENSRFTDCCLCVAGQEFQAHKAILAARSPVFSAMFEHEMEESKKNRVEINDVEPEVFKEMMCFIYTGKAPNLDKMADDLLAAADKYALERLKVMCEDALCSNLSVENAAEILILADLHSADQLKTQAVDFINYHASDVLETSGWKSMVVSHPHLVAEAYRSLASAQCPFLGPPRKRLKQS [Y87C]: the “effect of a mutation on the interaction” value is “with no effect”.

Variants of B1 are the subject of another assay. The following applies: with e2f3_human E2F3, O00716.
In the case of MSRVPSPPPPAEMSSGPVAESWCYTQIKVVKFSYMWTINNFSFCREEMGEVIKSSTFSSGANDKLKWCLRVNPKGLDEESKDYLSLCLLLVSCPKSEVRAKFKFSILNAKGEETKAMESQRAYRFVQGKDWGFKKFIRRDFLLDEANGLLPDDKLTLFCEVSVVQDSVNISGQNTMNMVKVPECRLADELGGLWENSRFTDCCLCVAGQEFQAHKAILAARSPVFSAMFEHEMEESKKNRVEINDVEPEVFKEMMCFIYTGKAPNLDKMADDLLAAADKYALERLKVMCEDALCSNLSVENAAEILILADLHSADQLKTQAVDFINYHASDVLETSGWKSMVVSHPHLVAEAYRSLASAQCPFLGPPRKRLKQS [Y87C], the “effect of a mutation on the interaction” value is “with no effect”.

In another assay the parent is B1. The following applies: with e2f5_human E2F5, Q15329.
In the case of MSRVPSPPPPAEMSSGPVAESWCYTQIKVVKFSYMWTINNFSFCREEMGEVIKSSTFSSGANDKLKWCLRVNPKGLDEESKDYLSLCLLLVSCPKSEVRAKFKFSILNAKGEETKAMESQRAYRFVQGKDWGFKKFIRRDFLLDEANGLLPDDKLTLFCEVSVVQDSVNISGQNTMNMVKVPECRLADELGGLWENSRFTDCCLCVAGQEFQAHKAILAARSPVFSAMFEHEMEESKKNRVEINDVEPEVFKEMMCFIYTGKAPNLDKMADDLLAAADKYALERLKVMCEDALCSNLSVENAAEILILADLHSADQLKTQAVDFINYHASDVLETSGWKSMVVSHPHLVAEAYRSLASAQCPFLGPPRKRLKQS [Y87C], the “effect of a mutation on the interaction” value is given as “with no effect”.

The variants in a further assay derive from B1. The following applies: with e2f6_human E2F6, O75461.
Chain of e2f6_human E2F6, O75461 (O75461 whole entry): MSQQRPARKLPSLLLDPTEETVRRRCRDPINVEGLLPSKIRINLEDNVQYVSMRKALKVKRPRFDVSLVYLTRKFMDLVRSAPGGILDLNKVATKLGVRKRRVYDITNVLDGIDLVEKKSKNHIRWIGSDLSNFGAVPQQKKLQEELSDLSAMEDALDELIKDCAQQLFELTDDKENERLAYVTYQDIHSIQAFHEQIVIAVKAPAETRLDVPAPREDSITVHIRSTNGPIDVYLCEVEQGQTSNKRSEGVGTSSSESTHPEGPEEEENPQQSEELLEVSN
For the variant MSRVPSPPPPAEMSSGPVAESWCYTQIKVVKFSYMWTINNFSFCREEMGEVIKSSTFSSGANDKLKWCLRVNPKGLDEESKDYLSLCLLLVSCPKSEVRAKFKFSILNAKGEETKAMESQRAYRFVQGKDWGFKKFIRRDFLLDEANGLLPDDKLTLFCEVSVVQDSVNISGQNTMNMVKVPECRLADELGGLWENSRFTDCCLCVAGQEFQAHKAILAARSPVFSAMFEHEMEESKKNRVEINDVEPEVFKEMMCFIYTGKAPNLDKMADDLLAAADKYALERLKVMCEDALCSNLSVENAAEILILADLHSADQLKTQAVDFINYHASDVLETSGWKSMVVSHPHLVAEAYRSLASAQCPFLGPPRKRLKQS [Y87C], the “effect of a mutation on the interaction” value is “with no effect”.

Variants of B1 are the subject of another assay. The note with it: with e2f8_human E2F8, A0AVK6.
For MSRVPSPPPPAEMSSGPVAESWCYTQIKVVKFSYMWTINNFSFCREEMGEVIKSSTFSSGANDKLKWCLRVNPKGLDEESKDYLSLCLLLVSCPKSEVRAKFKFSILNAKGEETKAMESQRAYRFVQGKDWGFKKFIRRDFLLDEANGLLPDDKLTLFCEVSVVQDSVNISGQNTMNMVKVPECRLADELGGLWENSRFTDCCLCVAGQEFQAHKAILAARSPVFSAMFEHEMEESKKNRVEINDVEPEVFKEMMCFIYTGKAPNLDKMADDLLAAADKYALERLKVMCEDALCSNLSVENAAEILILADLHSADQLKTQAVDFINYHASDVLETSGWKSMVVSHPHLVAEAYRSLASAQCPFLGPPRKRLKQS [Y87C], the “effect of a mutation on the interaction” value is given as “with no effect”.

Another assay covers variants of B1. The following applies: with if4e_human EIF4E.
For the variant MSRVPSPPPPAEMSSGPVAESWCYTQIKVVKFSYMWTINNFSFCREEMGEVIKSSTFSSGANDKLKWCLRVNPKGLDEESKDYLSLCLLLVSCPKSEVRAKFKFSILNAKGEETKAMESQRAYRFVQGKDWGFKKFIRRDFLLDEANGLLPDDKLTLFCEVSVVQDSVNISGQNTMNMVKVPECRLADELGGLWENSRFTDCCLCVAGQEFQAHKAILAARSPVFSAMFEHEMEESKKNRVEINDVEPEVFKEMMCFIYTGKAPNLDKMADDLLAAADKYALERLKVMCEDALCSNLSVENAAEILILADLHSADQLKTQAVDFINYHASDVLETSGWKSMVVSHPHLVAEAYRSLASAQCPFLGPPRKRLKQS [Y87C], the “effect of a mutation on the interaction” value is listed as “with no effect”.

The variants in the next assay derive from B1. The note with it: with epha7_human EPHA7, Q15375.
Chain of epha7_human EPHA7, Q15375 (Q15375 whole entry, looked up): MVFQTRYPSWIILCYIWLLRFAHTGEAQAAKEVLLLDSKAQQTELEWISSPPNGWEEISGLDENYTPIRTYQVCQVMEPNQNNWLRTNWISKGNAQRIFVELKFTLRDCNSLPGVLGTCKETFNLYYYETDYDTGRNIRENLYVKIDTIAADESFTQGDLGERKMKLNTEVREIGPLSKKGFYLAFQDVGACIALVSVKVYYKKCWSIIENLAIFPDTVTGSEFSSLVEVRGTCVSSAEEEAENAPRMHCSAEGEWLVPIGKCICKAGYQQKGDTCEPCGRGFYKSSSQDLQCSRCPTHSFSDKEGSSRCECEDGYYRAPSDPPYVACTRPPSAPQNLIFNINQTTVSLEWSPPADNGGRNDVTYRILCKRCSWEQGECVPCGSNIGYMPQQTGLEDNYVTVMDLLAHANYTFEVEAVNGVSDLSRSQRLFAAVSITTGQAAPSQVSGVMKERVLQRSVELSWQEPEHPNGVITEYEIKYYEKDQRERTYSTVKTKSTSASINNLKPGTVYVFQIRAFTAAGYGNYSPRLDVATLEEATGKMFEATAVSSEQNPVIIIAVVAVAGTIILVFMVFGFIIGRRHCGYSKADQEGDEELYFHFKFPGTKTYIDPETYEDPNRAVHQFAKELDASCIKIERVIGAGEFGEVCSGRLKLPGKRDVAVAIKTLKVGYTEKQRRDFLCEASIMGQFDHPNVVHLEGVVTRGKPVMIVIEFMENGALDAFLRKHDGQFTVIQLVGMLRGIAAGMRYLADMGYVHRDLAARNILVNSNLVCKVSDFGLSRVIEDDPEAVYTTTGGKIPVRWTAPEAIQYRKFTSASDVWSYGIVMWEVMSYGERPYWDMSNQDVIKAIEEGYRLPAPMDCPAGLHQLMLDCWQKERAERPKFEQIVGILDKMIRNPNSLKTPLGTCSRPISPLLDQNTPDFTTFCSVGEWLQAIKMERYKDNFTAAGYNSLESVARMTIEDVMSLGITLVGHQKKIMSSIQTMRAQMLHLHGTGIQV
On to MSRVPSPPPPAEMSSGPVAESWCYTQIKVVKFSYMWTINNFSFCREEMGEVIKSSTFSSGANDKLKWCLRVNPKGLDEESKDYLSLCLLLVSCPKSEVRAKFKFSILNAKGEETKAMESQRAYRFVQGKDWGFKKFIRRDFLLDEANGLLPDDKLTLFCEVSVVQDSVNISGQNTMNMVKVPECRLADELGGLWENSRFTDCCLCVAGQEFQAHKAILAARSPVFSAMFEHEMEESKKNRVEINDVEPEVFKEMMCFIYTGKAPNLDKMADDLLAAADKYALERLKVMCEDALCSNLSVENAAEILILADLHSADQLKTQAVDFINYHASDVLETSGWKSMVVSHPHLVAEAYRSLASAQCPFLGPPRKRLKQS [Y87C], for which the “effect of a mutation on the interaction” value is listed as “with no effect”.

The variants in another assay derive from B1. The note with it: with ephb1_human EPHB1, P54762.
Consider MSRVPSPPPPAEMSSGPVAESWCYTQIKVVKFSYMWTINNFSFCREEMGEVIKSSTFSSGANDKLKWCLRVNPKGLDEESKDYLSLCLLLVSCPKSEVRAKFKFSILNAKGEETKAMESQRAYRFVQGKDWGFKKFIRRDFLLDEANGLLPDDKLTLFCEVSVVQDSVNISGQNTMNMVKVPECRLADELGGLWENSRFTDCCLCVAGQEFQAHKAILAARSPVFSAMFEHEMEESKKNRVEINDVEPEVFKEMMCFIYTGKAPNLDKMADDLLAAADKYALERLKVMCEDALCSNLSVENAAEILILADLHSADQLKTQAVDFINYHASDVLETSGWKSMVVSHPHLVAEAYRSLASAQCPFLGPPRKRLKQS [Y87C], for which the “effect of a mutation on the interaction” value is on record as “with no effect”.

In a further assay the parent is B1. The following applies: with erbb3_human ERBB3, P21860.
As to MSRVPSPPPPAEMSSGPVAESWCYTQIKVVKFSYMWTINNFSFCREEMGEVIKSSTFSSGANDKLKWCLRVNPKGLDEESKDYLSLCLLLVSCPKSEVRAKFKFSILNAKGEETKAMESQRAYRFVQGKDWGFKKFIRRDFLLDEANGLLPDDKLTLFCEVSVVQDSVNISGQNTMNMVKVPECRLADELGGLWENSRFTDCCLCVAGQEFQAHKAILAARSPVFSAMFEHEMEESKKNRVEINDVEPEVFKEMMCFIYTGKAPNLDKMADDLLAAADKYALERLKVMCEDALCSNLSVENAAEILILADLHSADQLKTQAVDFINYHASDVLETSGWKSMVVSHPHLVAEAYRSLASAQCPFLGPPRKRLKQS [Y87C], the “effect of a mutation on the interaction” value is recorded as “with no effect”.

The variants in another assay derive from B1. The following applies: with erbb4_human ERBB4, Q15303.
Chain of erbb4_human ERBB4, Q15303 (Q15303 whole entry): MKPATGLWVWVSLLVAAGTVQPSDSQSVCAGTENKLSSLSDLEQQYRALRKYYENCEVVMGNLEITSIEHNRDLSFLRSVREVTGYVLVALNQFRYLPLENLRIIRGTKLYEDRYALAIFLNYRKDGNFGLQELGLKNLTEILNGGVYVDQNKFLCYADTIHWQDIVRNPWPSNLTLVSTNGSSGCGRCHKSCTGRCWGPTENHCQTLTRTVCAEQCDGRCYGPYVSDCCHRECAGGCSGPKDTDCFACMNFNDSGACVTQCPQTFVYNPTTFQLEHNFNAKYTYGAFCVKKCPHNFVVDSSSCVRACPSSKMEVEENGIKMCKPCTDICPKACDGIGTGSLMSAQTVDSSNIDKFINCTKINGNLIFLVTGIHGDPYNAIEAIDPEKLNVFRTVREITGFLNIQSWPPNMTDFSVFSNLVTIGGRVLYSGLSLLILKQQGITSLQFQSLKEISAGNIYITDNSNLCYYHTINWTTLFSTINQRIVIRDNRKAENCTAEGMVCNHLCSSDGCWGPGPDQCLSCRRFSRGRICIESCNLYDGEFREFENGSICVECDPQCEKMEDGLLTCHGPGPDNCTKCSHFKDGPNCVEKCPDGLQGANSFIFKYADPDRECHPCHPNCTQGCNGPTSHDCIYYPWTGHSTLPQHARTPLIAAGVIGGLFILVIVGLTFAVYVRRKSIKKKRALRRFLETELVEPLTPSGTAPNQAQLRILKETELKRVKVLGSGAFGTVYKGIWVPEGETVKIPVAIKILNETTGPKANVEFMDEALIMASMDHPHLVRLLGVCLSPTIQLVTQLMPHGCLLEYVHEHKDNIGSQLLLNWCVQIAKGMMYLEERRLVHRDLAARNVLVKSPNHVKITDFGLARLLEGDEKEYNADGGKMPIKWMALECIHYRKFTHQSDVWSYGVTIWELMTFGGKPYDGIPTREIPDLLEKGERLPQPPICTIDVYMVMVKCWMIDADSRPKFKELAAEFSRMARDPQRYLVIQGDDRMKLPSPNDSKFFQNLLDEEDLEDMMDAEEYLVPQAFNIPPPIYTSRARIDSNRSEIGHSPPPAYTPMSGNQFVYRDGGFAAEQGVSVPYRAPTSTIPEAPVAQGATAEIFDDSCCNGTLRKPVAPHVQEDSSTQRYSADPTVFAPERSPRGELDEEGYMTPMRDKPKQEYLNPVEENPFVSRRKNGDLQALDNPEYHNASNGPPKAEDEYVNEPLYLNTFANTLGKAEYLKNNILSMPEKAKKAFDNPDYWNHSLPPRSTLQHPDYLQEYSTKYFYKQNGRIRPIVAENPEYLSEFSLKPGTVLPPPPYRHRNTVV
MSRVPSPPPPAEMSSGPVAESWCYTQIKVVKFSYMWTINNFSFCREEMGEVIKSSTFSSGANDKLKWCLRVNPKGLDEESKDYLSLCLLLVSCPKSEVRAKFKFSILNAKGEETKAMESQRAYRFVQGKDWGFKKFIRRDFLLDEANGLLPDDKLTLFCEVSVVQDSVNISGQNTMNMVKVPECRLADELGGLWENSRFTDCCLCVAGQEFQAHKAILAARSPVFSAMFEHEMEESKKNRVEINDVEPEVFKEMMCFIYTGKAPNLDKMADDLLAAADKYALERLKVMCEDALCSNLSVENAAEILILADLHSADQLKTQAVDFINYHASDVLETSGWKSMVVSHPHLVAEAYRSLASAQCPFLGPPRKRLKQS [Y87C]: the “effect of a mutation on the interaction” value is listed as “with no effect”.

The next assay covers variants of B1. The note with it: with esr1_human ESR1, P03372.
As for MSRVPSPPPPAEMSSGPVAESWCYTQIKVVKFSYMWTINNFSFCREEMGEVIKSSTFSSGANDKLKWCLRVNPKGLDEESKDYLSLCLLLVSCPKSEVRAKFKFSILNAKGEETKAMESQRAYRFVQGKDWGFKKFIRRDFLLDEANGLLPDDKLTLFCEVSVVQDSVNISGQNTMNMVKVPECRLADELGGLWENSRFTDCCLCVAGQEFQAHKAILAARSPVFSAMFEHEMEESKKNRVEINDVEPEVFKEMMCFIYTGKAPNLDKMADDLLAAADKYALERLKVMCEDALCSNLSVENAAEILILADLHSADQLKTQAVDFINYHASDVLETSGWKSMVVSHPHLVAEAYRSLASAQCPFLGPPRKRLKQS [Y87C], the “effect of a mutation on the interaction” value is “with no effect”.

A further assay covers variants of B1. The following applies: with etv1_human ETV1, P50549.
Chain of etv1_human ETV1, P50549 (P50549 whole entry): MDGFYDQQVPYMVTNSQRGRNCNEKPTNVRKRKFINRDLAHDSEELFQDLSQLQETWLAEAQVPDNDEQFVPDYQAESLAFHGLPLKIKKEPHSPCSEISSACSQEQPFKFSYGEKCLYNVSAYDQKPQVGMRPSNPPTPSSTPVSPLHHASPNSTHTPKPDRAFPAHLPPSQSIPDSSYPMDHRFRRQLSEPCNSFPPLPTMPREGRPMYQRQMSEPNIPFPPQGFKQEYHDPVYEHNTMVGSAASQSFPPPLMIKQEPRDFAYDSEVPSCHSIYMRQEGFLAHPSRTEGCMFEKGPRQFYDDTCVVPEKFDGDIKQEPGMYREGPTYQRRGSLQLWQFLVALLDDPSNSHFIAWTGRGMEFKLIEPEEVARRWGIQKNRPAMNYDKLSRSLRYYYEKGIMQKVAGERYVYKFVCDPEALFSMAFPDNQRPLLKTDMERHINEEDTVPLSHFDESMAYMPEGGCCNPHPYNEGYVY
Take MSRVPSPPPPAEMSSGPVAESWCYTQIKVVKFSYMWTINNFSFCREEMGEVIKSSTFSSGANDKLKWCLRVNPKGLDEESKDYLSLCLLLVSCPKSEVRAKFKFSILNAKGEETKAMESQRAYRFVQGKDWGFKKFIRRDFLLDEANGLLPDDKLTLFCEVSVVQDSVNISGQNTMNMVKVPECRLADELGGLWENSRFTDCCLCVAGQEFQAHKAILAARSPVFSAMFEHEMEESKKNRVEINDVEPEVFKEMMCFIYTGKAPNLDKMADDLLAAADKYALERLKVMCEDALCSNLSVENAAEILILADLHSADQLKTQAVDFINYHASDVLETSGWKSMVVSHPHLVAEAYRSLASAQCPFLGPPRKRLKQS [Y87C]: the “effect of a mutation on the interaction” value is recorded as “with no effect”.
